# From patent US20260250404A1 (Genmab, published 2026)
# T1: recombinant His-tagged human FcγRIIb (human, UniProt P31994 43-217, limits assumed)
# T1 sequence (looked up): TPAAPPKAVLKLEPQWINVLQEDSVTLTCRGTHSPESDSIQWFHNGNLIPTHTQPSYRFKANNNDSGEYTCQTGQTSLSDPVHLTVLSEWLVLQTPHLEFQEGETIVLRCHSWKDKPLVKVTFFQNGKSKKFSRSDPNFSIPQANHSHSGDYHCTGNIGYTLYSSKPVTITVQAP
# T2: recombinant His-tagged human FcγRIIa, 167-Arg [R] / R131 variant (human, UniProt P12318 34-218, limits assumed)
# T2 construct: catalogue numbers differ; also called FcγRIIa-R; FcγRIIa-R131
# T2 sequence (looked up): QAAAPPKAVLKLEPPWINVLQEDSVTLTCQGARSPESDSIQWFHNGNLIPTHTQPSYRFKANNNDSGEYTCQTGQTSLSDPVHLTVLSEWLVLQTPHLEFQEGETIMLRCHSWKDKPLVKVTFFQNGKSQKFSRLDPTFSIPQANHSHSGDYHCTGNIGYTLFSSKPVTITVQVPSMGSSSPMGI
# T3: recombinant His-tagged human FcγRIIa, 167-His [H] / H131 variant (human, UniProt P12318 34-218, limits assumed)
# T3 construct: catalogue numbers differ; also called FcγRIIa-H; FcγRIIa-H131
# T3 sequence (looked up): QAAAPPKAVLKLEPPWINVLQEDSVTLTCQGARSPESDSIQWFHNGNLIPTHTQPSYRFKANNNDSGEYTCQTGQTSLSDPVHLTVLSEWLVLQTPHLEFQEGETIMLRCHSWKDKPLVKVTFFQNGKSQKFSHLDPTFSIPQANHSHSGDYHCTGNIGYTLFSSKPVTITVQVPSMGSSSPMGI
# T4: rat PD-1 on transfected CHO-S cells (rat, UniProt D3ZIN8 25-287)
# T4 sequence: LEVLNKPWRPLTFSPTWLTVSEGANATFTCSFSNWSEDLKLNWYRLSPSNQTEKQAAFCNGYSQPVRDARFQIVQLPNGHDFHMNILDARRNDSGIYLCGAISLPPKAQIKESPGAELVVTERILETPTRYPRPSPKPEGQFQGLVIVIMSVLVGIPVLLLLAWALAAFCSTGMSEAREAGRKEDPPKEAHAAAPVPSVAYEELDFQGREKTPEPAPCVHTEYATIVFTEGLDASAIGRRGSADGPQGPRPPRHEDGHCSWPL
# T5: mouse PD-1 on transfected CHO-S cells (mouse, UniProt Q02242 25-288)
# T5 construct: whole, on cells
# T5 sequence (looked up): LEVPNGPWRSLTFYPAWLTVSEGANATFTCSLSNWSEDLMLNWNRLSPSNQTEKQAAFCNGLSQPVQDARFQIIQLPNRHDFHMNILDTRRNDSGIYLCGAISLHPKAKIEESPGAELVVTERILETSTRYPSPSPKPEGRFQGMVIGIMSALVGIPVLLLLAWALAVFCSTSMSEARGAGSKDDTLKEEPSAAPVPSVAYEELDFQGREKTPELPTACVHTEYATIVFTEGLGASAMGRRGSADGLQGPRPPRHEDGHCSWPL
# B1: IgG1-CD27-A-P329R-E345R (antibody)
# heavy: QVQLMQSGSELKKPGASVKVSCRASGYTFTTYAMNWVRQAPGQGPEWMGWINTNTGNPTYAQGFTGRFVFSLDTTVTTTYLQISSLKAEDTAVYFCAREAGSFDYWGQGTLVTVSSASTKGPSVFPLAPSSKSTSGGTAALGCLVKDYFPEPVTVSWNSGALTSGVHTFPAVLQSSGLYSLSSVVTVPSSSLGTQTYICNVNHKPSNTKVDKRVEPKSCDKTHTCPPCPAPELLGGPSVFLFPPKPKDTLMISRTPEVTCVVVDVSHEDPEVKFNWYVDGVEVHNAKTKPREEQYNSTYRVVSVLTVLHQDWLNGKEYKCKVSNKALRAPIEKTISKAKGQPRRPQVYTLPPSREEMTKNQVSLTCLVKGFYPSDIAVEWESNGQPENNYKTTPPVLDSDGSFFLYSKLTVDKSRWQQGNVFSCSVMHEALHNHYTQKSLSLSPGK
# light: QSALTQPASVSGSPGQSITISCTGTSSDVYYYNYVSWYQQHPGRAPKLVIYDVSNRPSGVSNRFSGSKSGNTASLTISGLRAEDEADYYCSSYTVNRVWVFGGGTKLTVLGQPKAAPSVTLFPPSSEELQANKATLVCLISDFYPGAVTVAWKADSSPVKAGVETTTPSKQSNNKYAASSYLSLTPEQWKSHRSYSCQVTHEGSTVEKTVAPTECS
# notes: also called IgG1-CD27-A-E345R-P329R; IgG-CD27-A-P329R-E345R
# B2: IgG1-b12, anti-HIV gp120 antibody with wild-type IgG1 Fc (antibody)
# heavy: not shown
# light: EIVLTQSPGTLSLSPGERATFSCRSSHSIRSRRVAWYQHKPGQAPRLVIHGVSNRASGISDRFSGSGSGTDFTLTITRVEPEDFALYYCQVYGASSYTFGQGTKLERKRTVAAPSVFIFPPSDEQLKSGTASVVCLLNNFYPREAKVQWKVDNALQSGNSQESVTEQDSKDSTYSLSSTLTLSKADYEKHKVYACEVTHQGLSSPVTKSFNRGEC
# notes: also called WT IgG1-b12; ctrl; copies: 2 + 2
# B3: IgG1-b12-P329R-E345R (antibody)
# VH: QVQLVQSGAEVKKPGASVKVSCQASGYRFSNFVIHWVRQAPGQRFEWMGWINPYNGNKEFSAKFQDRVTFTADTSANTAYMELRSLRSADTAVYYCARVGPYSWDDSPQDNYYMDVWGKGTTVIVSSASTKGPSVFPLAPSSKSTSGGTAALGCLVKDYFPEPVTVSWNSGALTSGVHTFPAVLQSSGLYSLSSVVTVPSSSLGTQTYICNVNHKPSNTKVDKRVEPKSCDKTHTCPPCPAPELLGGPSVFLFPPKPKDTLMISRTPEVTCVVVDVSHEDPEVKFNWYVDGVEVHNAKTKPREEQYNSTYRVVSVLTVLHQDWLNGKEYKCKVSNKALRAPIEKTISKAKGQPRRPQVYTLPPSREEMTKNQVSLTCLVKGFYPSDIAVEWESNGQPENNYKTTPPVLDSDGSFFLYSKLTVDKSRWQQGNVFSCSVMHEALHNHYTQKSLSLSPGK
# VL: EIVLTQSPGTLSLSPGERATFSCRSSHSIRSRRVAWYQHKPGQAPRLVIHGVSNRASGISDRFSGSGSGTDFTLTITRVEPEDFALYYCQVYGASSYTFGQGTKLERKRTVAAPSVFIFPPSDEQLKSGTASVVCLLNNFYPREAKVQWKVDNALQSGNSQESVTEQDSKDSTYSLSSTLTLSKADYEKHKVYACEVTHQGLSSPVTKSFNRGEC
# notes: also called ctrl; IgG1-b12-E345R-P329R
# B4: IgG1-ctrl-FERR (b12 antigen-binding domains, IgG1m(f)-L234F-L235E-G236R-K409R) (antibody)
# heavy: QVQLVQSGAEVKKPGASVKVSCQASGYRFSNFVIHWVRQAPGQRFEWMGWINPYNGNKEFSAKFQDRVTFTADTSANTAYMELRSLRSADTAVYYCARVGPYSWDDSPQDNYYMDVWGKGTTVIVSSASTKGPSVFPLAPSSKSTSGGTAALGCLVKDYFPEPVTVSWNSGALTSGVHTFPAVLQSSGLYSLSSVVTVPSSSLGTQTYICNVNHKPSNTKVDKRVEPKSCDKTHTCPPCPAPEFERGPSVFLFPPKPKDTLMISRTPEVTCVVVDVSHEDPEVKFNWYVDGVEVHNAKTKPREEQYNSTYRVVSVLTVLHQDWLNGKEYKCKVSNKALPAPIEKTISKAKGQPREPQVYTLPPSREEMTKNQVSLTCLVKGFYPSDIAVEWESNGQPENNYKTTPPVLDSDGSFFLYSRLTVDKSRWQQGNVFSCSVMHEALHNHYTQKSLSLSPG
# light: EIVLTQSPGTLSLSPGERATFSCRSSHSIRSRRVAWYQHKPGQAPRLVIHGVSNRASGISDRFSGSGSGTDFTLTITRVEPEDFALYYCQVYGASSYTFGQGTKLERKRTVAAPSVFIFPPSDEQLKSGTASVVCLLNNFYPREAKVQWKVDNALQSGNSQESVTEQDSKDSTYSLSSTLTLSKADYEKHKVYACEVTHQGLSSPVTKSFNRGEC
# B5: IgG1-CD27-A-P329R-E345R-LNLuc (antibody)
# heavy: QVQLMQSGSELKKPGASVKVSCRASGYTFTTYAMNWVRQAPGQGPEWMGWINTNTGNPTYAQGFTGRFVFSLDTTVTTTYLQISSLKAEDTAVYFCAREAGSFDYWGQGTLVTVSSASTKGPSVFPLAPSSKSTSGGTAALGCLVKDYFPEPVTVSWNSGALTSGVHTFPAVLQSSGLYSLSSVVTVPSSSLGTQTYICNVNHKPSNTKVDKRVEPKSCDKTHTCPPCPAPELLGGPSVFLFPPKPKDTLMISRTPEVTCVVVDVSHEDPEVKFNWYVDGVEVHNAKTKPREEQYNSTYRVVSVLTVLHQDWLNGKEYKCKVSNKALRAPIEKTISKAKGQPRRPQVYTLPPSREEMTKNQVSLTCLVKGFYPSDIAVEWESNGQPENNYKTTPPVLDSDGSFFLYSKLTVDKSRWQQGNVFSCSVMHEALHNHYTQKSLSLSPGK
# light: QSALTQPASVSGSPGQSITISCTGTSSDVYYYNYVSWYQQHPGRAPKLVIYDVSNRPSGVSNRFSGSKSGNTASLTISGLRAEDEADYYCSSYTVNRVWVFGGGTKLTVLGQPKAAPSVTLFPPSSEELQANKATLVCLISDFYPGAVTVAWKADSSPVKAGVETTTPSKQSNNKYAASSYLSLTPEQWKSHRSYSCQVTHEGSTVEKTVAPTECSSLGSSGVFTLEDFVGDWRQTAGYNLDQVLEQGGVSSLFQNLGVSVTPIQRIVLSGENGLKIDIHVIIPYEGLSGDQMGQIEKIFKVVYPVDDHHFKVILHYGTLVIDGVTPNMIDYFGRPYEGIAVFDGKKITVTGTLWNGNKIIDERLINPDGSLLFRVTINGVTGWRLCERILA
# What was measured:
# [1] = molecular target: T1, recombinant His-tagged human FcγRIIb; assay: SPR (Biacore), His-tagged FcγR captured on anti-His chip, antibody injected
# [2] = molecular target: T2, recombinant His-tagged human FcγRIIa, …; assay: as above
# [3] = molecular target: T6, recombinant His-tagged human FcγRIIIa, 176-Phe [F] / F158 variant (human, UniProt P08637 17-208); assay: as above
# T6 construct: also called FcγRIIIa-F; FcγRIIIa-F158
# T6 sequence (P08637 17-208 limits assumed, change not shown): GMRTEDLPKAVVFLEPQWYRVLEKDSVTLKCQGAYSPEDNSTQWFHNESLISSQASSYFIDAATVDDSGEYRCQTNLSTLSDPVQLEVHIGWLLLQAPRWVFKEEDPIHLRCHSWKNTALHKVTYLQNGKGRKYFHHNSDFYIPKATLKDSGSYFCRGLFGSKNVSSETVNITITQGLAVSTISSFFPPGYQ
# [4] = molecular target: recombinant His-tagged human FcγRIa (Sino Biological 10256-H08S-B) (human, UniProt P12314 16-288); assay: SPR (Biacore), His-tagged FcγR captured on anti-His chip, antibody injected, resonance units after background subtraction
# Sequence of recombinant His-tagged human FcγRIa (Sino Biological 10256-H08S-B) (P12314 16-288 limits assumed, stated change not applied): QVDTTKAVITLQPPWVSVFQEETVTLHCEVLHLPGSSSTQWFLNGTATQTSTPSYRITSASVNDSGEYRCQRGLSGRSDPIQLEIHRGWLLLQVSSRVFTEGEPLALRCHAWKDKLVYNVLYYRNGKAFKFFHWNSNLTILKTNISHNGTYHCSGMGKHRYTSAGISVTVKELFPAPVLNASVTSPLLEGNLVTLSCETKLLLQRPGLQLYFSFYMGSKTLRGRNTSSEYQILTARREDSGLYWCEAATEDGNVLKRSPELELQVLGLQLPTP
# [5] = molecular target: T7, human CD27 on the cell surface (T cells, transfected HEK293F cells, Daudi cells, NFκB-luc2/CD27 Jurkat cells) (human, UniProt P26842 20-240); assay: flow cytometry on CD8+ T cells in human healthy donor PBMC, FITC goat anti-human IgG F(ab')2, median FITC
# T7 construct: Full length human CD27, endogenous or transfected; also called TNFRSF7
# T7 sequence (P26842 20-240): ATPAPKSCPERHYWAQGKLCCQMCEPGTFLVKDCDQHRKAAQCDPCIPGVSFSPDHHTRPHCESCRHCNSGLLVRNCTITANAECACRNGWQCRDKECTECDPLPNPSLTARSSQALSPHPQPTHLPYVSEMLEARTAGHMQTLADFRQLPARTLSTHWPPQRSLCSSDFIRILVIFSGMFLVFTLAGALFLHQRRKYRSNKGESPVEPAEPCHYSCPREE
# [6] = molecular target: T7, human CD27 on the cell surface (T …); assay: flow cytometry on CD4+ T cells in human healthy donor PBMC, FITC goat anti-human IgG F(ab')2, median FITC
# [7] = molecular target: T3, recombinant His-tagged human FcγRIIa, …; assay: SPR (Biacore), His-tagged FcγR captured on anti-His chip, antibody injected
# [8] = molecular target: T8, recombinant His-tagged human FcγRIIIa, 176-Val [V] / V158 variant (human, UniProt P08637 17-208); assay: as above
# T8 construct: also called FcγRIIIa-V; FcγRIIIa-V158
# T8 sequence (P08637 other isoform, or with tags, fused parts or gaps mutant limits assumed): as the sequence (P08637 17-208 limits assumed, change not shown) above, with F160V counted along it
# [9] = molecular target: T9, human complement protein C1q (from normal human serum) (human, UniProt P02745 23-245; P02746 28-253; P02747 29-245); assay: flow cytometry, C1q (20% normal human serum) binding to antibody bound on human T cells, FITC anti-C1q
# T9 construct: Native C1q supplied as 20% normal human serum
# T9 sequence (P02745 23-245, chain 1 of 3): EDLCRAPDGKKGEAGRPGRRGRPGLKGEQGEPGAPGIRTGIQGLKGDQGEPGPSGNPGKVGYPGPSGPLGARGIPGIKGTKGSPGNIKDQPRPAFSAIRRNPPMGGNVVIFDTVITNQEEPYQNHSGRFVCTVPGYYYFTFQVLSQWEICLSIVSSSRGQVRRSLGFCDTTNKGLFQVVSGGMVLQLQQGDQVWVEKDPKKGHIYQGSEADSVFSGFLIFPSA
# T9 sequence (P02746 28-253, chain 2 of 3): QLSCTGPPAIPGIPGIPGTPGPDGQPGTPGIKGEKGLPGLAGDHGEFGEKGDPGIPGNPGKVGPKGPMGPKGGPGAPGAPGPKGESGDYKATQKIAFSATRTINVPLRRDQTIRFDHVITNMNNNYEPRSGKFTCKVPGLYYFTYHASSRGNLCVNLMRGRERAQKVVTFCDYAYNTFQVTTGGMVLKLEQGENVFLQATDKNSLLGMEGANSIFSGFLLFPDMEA
# T9 sequence (P02747 29-245, chain 3 of 3): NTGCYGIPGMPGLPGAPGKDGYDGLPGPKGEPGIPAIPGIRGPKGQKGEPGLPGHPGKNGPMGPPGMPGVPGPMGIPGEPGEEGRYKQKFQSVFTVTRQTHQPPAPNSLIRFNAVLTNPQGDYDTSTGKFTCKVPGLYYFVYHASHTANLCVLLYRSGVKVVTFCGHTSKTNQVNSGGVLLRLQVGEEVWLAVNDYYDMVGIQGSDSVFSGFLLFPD
# [10] = molecular target: T1, recombinant His-tagged human FcγRIIb; assay: SPR (Biacore), His-tagged FcγR captured on anti-His chip, antibody injected, resonance units after background subtraction
# [11] = molecular target: T2, recombinant His-tagged human FcγRIIa, …; assay: as above
# [12] = molecular target: T6, recombinant His-tagged human FcγRIIIa, …; assay: as above
# [13] = molecular target: T3, recombinant His-tagged human FcγRIIa, …; assay: as above
# [14] = molecular target: T8, recombinant His-tagged human FcγRIIIa, …; assay: as above
# [15] = molecular target: T10, human FcγRIa on the cell surface (transfected CHO-S cells, M0/M1 macrophages, hMDM, FcγRI effector reporter … (human, UniProt P12314 16-374)); assay: flow cytometry on human monocyte-derived M0 macrophages, PE-labeled goat anti-human IgG, GeoMean-PE
# T10 construct: whole, on cells; also called CD64
# T10 sequence (P12314 16-374): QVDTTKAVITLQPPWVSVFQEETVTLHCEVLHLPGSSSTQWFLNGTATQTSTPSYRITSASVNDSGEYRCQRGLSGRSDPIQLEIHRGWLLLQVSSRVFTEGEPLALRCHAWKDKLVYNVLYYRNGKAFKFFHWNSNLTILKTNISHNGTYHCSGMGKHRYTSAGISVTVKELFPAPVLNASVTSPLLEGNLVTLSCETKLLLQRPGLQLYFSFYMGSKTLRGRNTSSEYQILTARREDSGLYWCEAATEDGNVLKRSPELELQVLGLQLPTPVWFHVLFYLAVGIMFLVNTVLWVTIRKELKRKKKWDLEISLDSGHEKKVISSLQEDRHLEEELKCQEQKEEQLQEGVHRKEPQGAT
# [16] = molecular target: T4, rat PD-1 on transfected CHO-S cells; assay: flow cytometry on CHO-S cells transiently transfected with rat PD-1, gMFI (PE)
# [17] = molecular target: cynomolgus monkey PD-1 on transfected CHO-S cells (cynomolgus monkey, UniProt B0LAJ3 25-288); assay: flow cytometry on CHO-S cells transiently transfected with cynomolgus monkey PD-1, gMFI (PE)
# Sequence of cynomolgus monkey PD-1 on transfected CHO-S cells (B0LAJ3 entry or part of it limits assumed): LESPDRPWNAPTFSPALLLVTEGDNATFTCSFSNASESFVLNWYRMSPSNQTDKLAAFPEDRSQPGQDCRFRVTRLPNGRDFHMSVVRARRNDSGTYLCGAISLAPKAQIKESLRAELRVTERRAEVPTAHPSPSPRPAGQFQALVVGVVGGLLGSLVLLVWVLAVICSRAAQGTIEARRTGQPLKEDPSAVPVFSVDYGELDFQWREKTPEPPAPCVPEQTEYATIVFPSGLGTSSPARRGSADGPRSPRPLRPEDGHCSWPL
# [18] = molecular target: T11, human PD-1 on the cell surface (transfected CHO-S cells; PD-1 effector reporter Jurkat T cells) (human, UniProt Q15116 25-288); assay: flow cytometry on CHO-S cells transiently transfected with human PD-1, gMFI (PE)
# T11 construct: also called CD279
# T11 sequence (Q15116 25-288 limits assumed): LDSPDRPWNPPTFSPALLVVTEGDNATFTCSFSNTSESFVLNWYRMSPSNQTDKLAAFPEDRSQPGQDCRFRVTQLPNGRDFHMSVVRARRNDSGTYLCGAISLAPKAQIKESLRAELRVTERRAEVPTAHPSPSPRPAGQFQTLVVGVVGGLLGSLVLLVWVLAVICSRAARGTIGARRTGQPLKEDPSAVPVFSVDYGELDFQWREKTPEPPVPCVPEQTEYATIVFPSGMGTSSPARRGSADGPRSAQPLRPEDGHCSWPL
# [19] = molecular target: T10, human FcγRIa on the cell surface …; assay: flow cytometry on CHO-S cells transiently expressing human FcγRIa, % PE+ cells
# [20] = molecular target: T5, mouse PD-1 on transfected CHO-S cells; assay: flow cytometry on CHO-S cells transiently transfected with mouse PD-1, gMFI (PE)
# [21] = molecular target: T12, IgG1-CD27-A-P329R-E345R-LHalo (HaloTag NanoBret 618 ligand bound to the HaloTag); assay: NanoBRET proximity assay between NanoLuc- and HaloTag-tagged antibodies (5 µg/mL each) bound on cells, corrected BRET (mBU)
# T12 construct: Light chain fused to HaloTag; heavy chain as for m63
# T12 sequence (heavy, as listed by the source): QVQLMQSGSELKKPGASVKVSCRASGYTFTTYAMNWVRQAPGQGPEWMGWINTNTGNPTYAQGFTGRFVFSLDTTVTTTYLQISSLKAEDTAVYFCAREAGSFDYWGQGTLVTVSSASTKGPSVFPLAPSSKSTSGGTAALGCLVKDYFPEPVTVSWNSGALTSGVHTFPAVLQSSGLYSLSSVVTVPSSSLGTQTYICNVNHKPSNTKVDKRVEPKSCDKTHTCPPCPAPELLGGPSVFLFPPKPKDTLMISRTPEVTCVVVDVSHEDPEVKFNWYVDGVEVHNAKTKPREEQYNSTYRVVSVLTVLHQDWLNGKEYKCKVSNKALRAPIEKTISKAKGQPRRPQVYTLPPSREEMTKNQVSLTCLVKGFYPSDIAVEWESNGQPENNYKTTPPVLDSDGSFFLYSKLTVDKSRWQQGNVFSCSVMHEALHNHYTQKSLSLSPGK
binder,measurement,setting,value
B1,binding result,[1],"no binding (tested: 10,000 nM)"
same,binding result,[2],"no binding (tested: 10,000 nM)"
same,binding result,[3],"no binding (tested: 10,000 nM)"
same,binding result,[4],binds
same,EC50 (read off the curve),[5],~0.03 µg/mL
same,EC50 (read off the curve),[6],~0.03 µg/mL
same,binding result,[7],"no binding (tested: 10,000 nM)"
same,binding result,[8],"no binding (tested: 10,000 nM)"
same,binding result,[9],no binding (tested: 15 µg/mL)
B2,binding result,[10],binds
same,EC50 (read off the curve),[4],~60 nM
same,binding result,[11],binds
same,binding result,[12],binds
same,binding result,[13],binds
same,binding result,[14],binds
B3,binding result,[15],no binding (tested: 30 µg/mL)
same,binding result,[6],no binding (tested: 10 µg/ml)
B4,binding result,[16],no binding (tested: 10 µg/mL)
same,binding result,[17],no binding (tested: 10 µg/mL)
same,binding result,[18],no binding (tested: 10 µg/mL)
same,binding result,[19],no binding (tested: 10 µg/mL)
same,binding result,[20],no binding (tested: 10 µg/mL)
B5,binding result,[21],binds
